# Assay: soluble on expression in E. coli; label from the status in PepcDB or PDB records
row,Sequence,soluble on expression in E. coli
1,MKSPSAGAPDRHASSRSVPDRWNMHKPMLCDSLPTASRTAAAILNLAQREDVTAEALAQLIQTDPALTGRILRFANAPAQGTRRPVASVIDAIDLVGLPAVRQFALSLSLIDAHREGRCEAFDYAAYWQKSLARAVALQSITAQASTVAPKEAFTLGLLADVGRLALATAWPEEYSECLRKADGEALIALERERFATDHDELTRMLLTDWGFPQVFIDALQLSQQDEIRDEGRTGRFARQLALAQHIADHRLAEEPRRAALSPLLRAEARRCGLGDEDLARLLADPPADWLDWTRTIGLPGDAPTGGAEPSRPPPQTDEKLHVLLADDDPIMLARLSRQLEADGHHVASRRDGETALAYALEHQPEMVITDWHMKPMNGLELCRALRESALGGNVYIVMLTASESEDALVEAFGAGIDDYVIKPPSVRVLKARIRAGQRIITLHKKLARERKEIERYSSELAAANRRLELMAHTDQLTGLPNRRYAMDRLEREWAQARTFDRPLSIMMLDLDWFKSINDSLGHDAGDQALVHAARVMRETVRTSDVVCRMGGEEFLIIIPDTAGPAAIQTAERVRSAVEQQQPAKLKLSRPLTASIGVADSTSAPSLKDLLLKADNALYQVKQNGRNGVRYAGLAAALEHHHHHH,not soluble
2,MNFDWQMPRDPFADDPNDPASFIEDDEQAPPLTEAERQHIREDLALVKRFKEALEPRGINGIFFLCEDCDEDHYYDWDIMAANMRATLAGELAPVHEPSVNPNPHAYVPWDYCLGYLDGLEAPRMRFF,not soluble
3,MGSDKIHHHHHHMTTEFKGQTIPPMHTGGQGAVTGQRFLDRLRQNPPTLYIDGQRVADPTTHPSTRNMCQSLAGLYDLQFQEDLKETLTYEDGGKRYARSFMVPRTKDDLRLIAESHRIRANYGLGFLGRAPDYMNANVMAAGAGAEYFNGCSAAVPGDPKRDFAANMRRYYEYVQGNDLCLTHALTNPQVNRSKMASELPDPYIALGIVEETDEGVIVRGARMMATLPIADEILIFPSTVLKENADKSRYAMGFGIPTNTPGLSFQCREPIDVGRDPEDHPLSSRFDEQDAFVIFDDVLVPWERIFLLYDVELANKAYAGTDAVLHMAYQVVNLKIAKTEAFLGTAQSIVNAIGSGGFQHVQAKIAEIIIMLEIMKALEVAAREQAEPNDYGVMTPARAPLDAARNYYPANHARLPELLQLLGASGIIMMPSKADREGPLGPQIAKYLQTGNANADERLRLFRLAWDMSMSSFAGRQELYERYFFGDPVRMHSALYEVYDSSEAVARIGEFLQRK,not soluble
4,MDSMDHRIERLEYYIQLLVKTVDMDRYPFYALLIDKGLSKEEGEAVMRICDELSEELATQKAQGFVTFDKLLALFAGQLNEKLDVHETIFALYEQGLYQELMEVFIDIMKHFD,soluble
5,MLEVLVALAIFATAAISVIRSVSQHINTVSYLEEKMFAAMVVDNQMANVMLDTGALKAKNGTEELAGRTWYWKVTPVATTQPLLKAFDVSVATAKNASPVVTVRSYVAQ,not soluble
6,MGSDKIHHHHHHMSEQQCTELKVLDTVPFGQVSGDAQFYALRLEKPRWKSWKPGQFVMIRPQGWALDMLWARPFSICRVSSRDLVLFFQAVGRGTRRLADLKAGDTVVVWGPLGNSFAVEPETPTLMLAGGIGIAPFIGYAHTHPKPWNLWMEFGHRMPLGCYPFESINEKIMADNHQEECPDDLLRFIERLEKRIAEYAEQDGLVLACGPTPFLRTVQRFALQYGARCQLSLETRMACGVGGCLGCVTSTTEKHHLHHTQAGKAQVCNNGPVFWADQVDLDKA,not soluble
7,MSLIRSMTAYARREIKGEWGSATWEMRSVNQRYLETYFRLPEQFRSLEPVVRERIRSRLTRGKVECTLRYEPDVSAQGELILNEKLAKQLVTAANWVKMQSDEGEINPVDILRWPGVMAAQEQDLDAIAAEILAALDGTLDDFIIARETEGQALKVLIEQRLEGVTAEVAKVRAHMPEILQWQRERLIAKLEDAQVQLENNRLEQELVLLAQRIDVAEELDRLEAHAKETYNILKKKEAVGRRLDFMMQEFNRESNTLASKSINAEVTNSAIELKVLIEQMREQIQNIEEGHHHHHH,soluble
8,MGHHHHHHHHHHSSGHIDDDDKHMLEDPMATGDERFYAEHLMPTLQGLLDPESAHRLAVRFTSLGLLPRARFQDSDMLEVRVLGHKFRNPVGIAAGFDKHGEAVDGLYKMGFGFVEIGSVTPKPQEGNPRPRVFRLPEDQAVINRYGFNSHGLSVVEHRLRARQQKQAKLTEDGLPLGVNLGKNKTSVDAAEDYAEGVRVLGPLADYLVVNVSSPNTAGLRSLQGKAELRRLLTKVLQERDGLRRVHRPAVLVKIAPDLTSQDKEDIASVVKELGIDGLIVTNTTVSRPAGLQGALRSETGGLSGKPLRDLSTQTIREMYALTQGRVPIIGVGGVSSGQDALEKIRAGASLVQLYTALTFWGPPVVGKVKRELEALLKEQGFGGVTDAIGADHRR,soluble
9,MRGRPIELEPWQQFAFACILGFKVKATGRRKYTSAFIEVPRKNAKSTTAAILANWFLIMENGQQDIYTAAVSRDQARIVFDNARQMCLLSRPLRRRVNIQAHKVIHPKSNSLLKPLAAKAATIEGTNPSLSIVDEYHLHPDNGVYSALELGMGARPEGLLFAITTSGSNVVSACKQHYDYCCQILDGEEVNDSIFVLIYELDDENEVDDPAMWIKANPNIDVSVDREKLASTIQKARGIPSQWVEMMTKRFNIWCQGTTPWMGNGAWAECAGTFTEEDLHGQECYAGLDLSSTSDISSVCYAFPVGKTIMLISRHYLPEFQLQNPANKNRAVYRQWAKAGWIRTTPGDCIDYDRIRDDIMQDAEKFNIRLVGFDTWNATHLRTQLQGAGFEVEPFPQTYLRFSPAAKSFEVFVNRRVIVHRGDPVLSWSMSNVVMQSDANANIKPNKKKSPNKIDPSVAALMAFGTFQAEHEDFAFDISDSHRQKLEEFSGV,not soluble
10,MAHHHHHHSLMLKKNDIIQVAISDLSHEGAGVAKHDGFVFFVDNALPEEVIDMRVLKVNKNSGFGKVEAYHYLSSARNADVNLTYLRTGIADLGHLTYEDQLTFKKKQVQDSLYKIAGISDVTVESTIGMTEPLAYRNKAQVPVRRVNGQLETGFFRKHSHDLIPISDYYIQDKEIDRLINFTRDLLRRFDIKPYDETEQTGLLRNIVVRRGHYSGEMMLVLVTTRPKVFRVDQVIEKIVEAFPAVVSIIQNINDKNTNAIFGKDFKTLYGKDTITDSMLGNNYAISAQSFYQVNTVMAEKLYQTAIAFSDLSKDDIVIDAYSGIGTIGLSFAKTVKAVYGVEVIEAAVRDAQQNAALNGITNAYFVADTAEHAMATWAKDGIKPSVILVDPPRKGLTESFIQASVAMGPQKITYVSCNPATMARDIKRYQELGYKLAKVQPVDLFPQTHHVECVVLLIKEEG,not soluble
11,GPGSMWDVVSRVGKAAYRTAALTGLAAGTEQPPYPCALPLKTVSSDSDVDSMREVLNSAFDASKDMLENNGEHQWQLVDYVDPEEGGDLHLFTRPRVGPFNFVKATLSFMGVSPQNVLDTMHSDNADDRKRYSANLSHFEVLAKPMAGCAIELHKYWAPPPVAGREFVFAAEKKYVESENVYYVHGCSIDYTPQMETSKGFVRAACLWAWKLMPVGDNTLATYVSCMNPRGWTPPFIFGWLKSEIGKELVACRRVLYGETVKVERTTLQGMGLSDEVNNLTDEERKRMSEGEPQPEAS,soluble
12,MIVLIDGPSGSGKTTFAGFLGEILGMRIVHFDDLYPGWHGLAAGVKIVTALLEGAGGYHRWDWANNVMGPWVEVPERNLIIEGVGSLAPSVVRAARQHGPVLTMLFDGPEQMRRSRALARDPFYEPWWEMWAEQEARHFATVETPDVTRGYP,not soluble
13,MGSDKIHHHHHHMLWFKNLMIYRLSQDSVLSKDNVLSTDEMEKRLSAFAFTPCGSQDMMKTGWVSPMGSHSDALTHVVNGQIVICVRKEEKILPSPVIKQTLQAKIERLEAEQHRKLKKTEKDSLKDEVLHSLLPRAFSRLSQVWLWIDTVNGLIMVDAASAKKAEDTLALLRKTLGSLPVVPLTMENPIELTLTEWVRSGEPAAGFALQDEAELKAILEDGGVIRCKKQDLVCDEIAVHIEAGKLVTKLALDWQERIQLILSDDGSVKRLKFSDTLREQNDDIDREDFAQRFDADFILMTSELAALIANLIEALGGEAQR,not soluble
14,MSTVSGLKRPQSSEKNHRDRVFVRATRGKVQKVVREQYLRNDIPCQSRACPLCRSKLPKDSRGNVLEPILSEKPMFLEKFGHHYLIPDSNIFYHCIDALEHPNNFFDVIILQTVFSEISSKSIPLYNRMKRLCQEKTKRFTPFSNEFFVDTFVERLDDESANDRNDRAIRNAASWFASHLASLGIKIVLLTDDRENARLAAEQGIQVSTLKDYVQYLPDSEILLDMVSAIADAIASKEQVESGTKNVYELHWSMSRLLACIKNGEVHKGLINISTYNYLEGSVVVPGYNKPVLVSGRENLNRAVQGDIVCIQILPQDQWKTEAEEIADDDEDVVVSTAAEPDSARINDLELITKRNAHPTAKVVGILKRNWRPYVGHVDNATIAQSKGGSQQTVLLTPMDRRVPKIRFRTRQAPRLVGRRIVVAIDLWDASSRYPEGHFVRDLGEMETKEAETEALLLEYDVQHRPFPKAVLDCLPEEGHNWKVPADKTHPLWKNRKDFRDKLICSIDPPGCQDIDDALHACVLPNGNYEVGVHIADVTHFVKPNTSMDSEAASRGTTVYLVDKRIDMLPMLLGTDLCSLRPYVERFAFSCIWEMDENANIIKVHFTKSVIASKEAFSYADAQARIDDQKMQDPLTQGMRVLLKLSKILKQKRMDEGALNLASPEVRIQTDNETSDPMDVEIKQLLETNSLVEEFMLLANISVAQKIYDAFPQTAVLRRHAAPPLTNFDSLQDILRVCKGMHLKCDTSKSLAKSLDECVDPKEPYFNTLLRILTTRCMLSAEYFCSGTFAPPDFRHYGLASPIYTHFTSPIRRYADVLAHRQLAAAIDYETINPSLSDKSRLIEICNGINYRHRMAQMAGRASIEYYVGQALKGGVAEEDAYVIKVFKNGFVVFIARFGLEGIVYTKSLSSVLEPNVEYVEDEYKLNIEIRDQPKPQTVQIQMFQQVRVRVTTVRDEHSGKQKVQITLVY,soluble
15,MTSAYFGVAGGGNAGAQSAYFGVGGGPAGGGGGNKSAGGGGAPPPGVSCYLGAGAGGAASGSQSAYFGVGGGPVGGGGGGGAPPAASNDAGYFATPPAAPAGGSSTMTAVGGAPRGASTMTAVGGAPVGGSSTMTAVGGAPSGASTMTAIGGAPRGASTMTAVGGAPMGGGSTMTAVGGAPSGASTMTAVGGAPSGASTMTAIGGAPRGASTMTAVGGAPMGGSSTMTAVGGAPIGGSSTMTAVGGAPRGASTMTAVGGAPGGASTMTAMGGGPSAFGGAPPPPSGSAMGGGGGGGATSAYFGVGSGAMGGGGAGAQSAYFGVGGGPVGGGGGGAKSGGGGGGIPGQSVYMGAGGGGGGGGGGGATSAYFAPR,not soluble
16,QLAAIDAFDRLTALMTSHFDIDVAFVGLMDEHEERFVACEGANWRTLAREDTICTHTILSDETMVVEDTHEDPRFAEVDALKRLNIRSYAGGRITDREGNAIGAVCCTDGEPRRYTQTERDDLQRFADEVEEQLLLRRRLQGDR,not soluble
17,MHHHHHHSSGVDLGTENLYFQSMPRIDADLKLDFKDVLLRPKRSSLKSRAEVDLERTFTFRNSKQTYSGIPIIVANMDTVGTFEMAAVMSQHSMFTAIHKHYSLDDWKLFATNHPECLQNVAVSSGSGQNDLEKMTSILEAVPQVKFICLDVANGYSEHFVEFVKLVRAKFPEHTIMAGNVVTGEMVEELILSGADIIKVGVGPGSVCTTRTKTGVGYPQLSAVIECADSAHGLKGHIISDGGCTCPGDVAKAFGAGADFVMLGGMFSGHTECAGEVIERNGRKLKLFYGMSSDTAMNKHAGGVAEYRASEGKTVEVPYKGDVENTILDILGGLRSTCTYVGAAKLKELSRRATFIRVTQQHNTVFS,soluble

# Reference: the DeepSol protein solubility set
